Experimental findings from the supplement of paper PMC11246515 are described below.

± gives the standard deviation of the averaged measurements.

The nature of the data set: total protein half-life in vivo (active degradation + dilution); higher = more stable protein.
Setting [1] is: wild type E. coli NCM3722, growth: P-lim chemostat, doubling time 12 h.
[2] abbreviates: E. coli NCM3722 delta-clpP delta-lon delta-hslV, growth: N-lim chemostat, doubling time 6 h.
Where [3] appears, read: wild type E. coli NCM3722, growth: C-lim chemostat, doubling time 3 h.
The mark [4] stands for this setting: wild type E. coli NCM3722, growth: C-lim chemostat, doubling time 6 h.
[5] abbreviates: wild type E. coli NCM3722, growth: C-lim chemostat, doubling time 12 h.
The mark [6] stands for this setting: E. coli NCM3722 delta-hslV, growth: N-lim chemostat, doubling time 6 h.
[7] abbreviates: E. coli NCM3722 delta-lon, growth: N-lim chemostat, doubling time 6 h.
[8] abbreviates: E. coli NCM3722 delta-smpB, growth: N-lim chemostat, doubling time 6 h.
Setting [9] is: wild type E. coli NCM3722, growth: N-lim chemostat, doubling time 6 h.
Where [10] appears, read: wild type E. coli NCM3722, growth: N-lim chemostat, doubling time 12 h.
Where [11] appears, read: wild type E. coli NCM3722, growth: P-lim chemostat, doubling time 6 h.
The mark [12] stands for this setting: E. coli NCM3722 delta-clpP, growth: N-lim chemostat, doubling time 6 h.

“MNRIYACPVADVPEGEALRIDTSPVIALFNVGGEFYAINDRCSHGNASMSEGYLEDDATVECPLHAASFCLKTGKALCLPATDPLTTYPVHVEGGDIFIDLPEAQP [P0ABW0]”: the “total protein half-life in vivo” value under setting [1] came to 2.53 h.
With “MIRLSEQSPLGTGRHRKCYAHPEDAQRCIKIVYHRGDGGDKEIRRELKYYAHLGRRLKDWSGIPRYHGTVETDCGTGYVYDVIADFDGKPSITLTEFAEQCRYEEDIAQLRQLLKQLKRYLQDNRIVTMSLKPQNILCHRISESEVIPVVCDNIGESTLIPLATWSKWCCLRKQERLWKRFIAQPALAIALQKDLQPRESKTLALTSREA”, the “total protein half-life in vivo” value worked out at 3.47 h under setting [2], 3.22 h under setting [3], 7.68 h under setting [4] and 10.7 h under setting [5].
As to “MSLNFLDFEQPIAELEAKIDSLTAVSRQDEKLDINIDEEVHRLREKSVELTRKIFADLGAWQIAQLARHPQRPYTLDYVRLAFDEFDELAGDRAYADDKAIVGGIARLDGRPVMIIGHQKGRETKEKIRRNFGMPAPEGYRKALRLMQMAERFKMPIITFIDTPGAYPGVGAEERGQSEAIARNLREMSRLGVPVVCTVIGEGGSGGALAIGVGDKVNMLQYSTYSVISPEGCASILWKSADKAPLAAEAMGIIAPRLKELKLIDSIIPEPLGGAHRNPEAMAASLKAQLLADLADLDVLSTEDLKNRRYQRLMSYGYA [P0ABD5]”, the “total protein half-life in vivo” value under setting [2] was determined as 6.13 ± 0.7 h; the “total protein half-life in vivo” value under setting [6] amounted to 6.72 ± 0.71 h; the “total protein half-life in vivo” value under setting [7] stood at 7.18 ± 0.38 h; the “total protein half-life in vivo” value under setting [8] amounted to 5.526 ± 0.043 h; the “total protein half-life in vivo” value under setting [3] amounted to 3.63 ± 0.15 h; the “total protein half-life in vivo” value under setting [4] was 7.76 ± 0.089 h. For the same sequence, the “total protein half-life in vivo” value reads like this: under setting [5], 12.5 ± 0.96 h; under setting [9], 6.34 ± 0.58 h; under setting [10], 11.4 ± 2.5 h; under setting [11], 6.27 ± 0.27 h; under setting [1], 13.9 ± 1.9 h.
As to “MGKALVIVESPAKAKTINKYLGSDYVVKSSVGHIRDLPTSGSAAKKSADSTSTKTAKKPKKDERGALVNRMGVDPWHNWEAHYEVLPGKEKVVSELKQLAEKADHIYLATDLDREGEAIAWHLREVIGGDDARYSRVVFNEITKNAIRQAFNKPGELNIDRVNAQQARRFMDRVVGYMVSPLLWKKIARGLSAGRVQSVAVRLVVEREREIKAFVPEEFWEVDASTTTPSGEALALQVTHQNDKPFRPVNKEQTQAAVSLLEKARYSVLEREDKPTTSKPGAPFITSTLQQAASTRLGFGVKKTMMMAQRLYEAGYITYMRTDSTNLSQDAVNMVRGYISDNFGKKYLPESPNQYASKENSQEAHEAIRPSDVNVMAESLKDMEADAQKLYQLIWRQFVACQMTPAKYDSTTLTVGAGDFRLKARGRILRFDGWTKVMPALRKGDEDRILPAVNKGDALTLVELTPAQHFTKPPARFSEASLVKELEKRGIGRPSTYASIISTIQDRGYVRVENRRFYAEKMGEIVTDRLEENFRELMNYDFTAQMENSLDQVANHEAEWKAVLDHFFSDFTQQLDKAEKDPEEGGMRPNQMVLTSIDCPTCGRKMGIRTASTGVFLGCSGYALPPKERCKTTINLVPENEVLNVLEGEDAETNALRAKRRCPKCGTAMDSYLIDPKRKLHVCGNNPTCDGYEIEEGEFRIKGYDGPIVECEKCGSEMHLKMGRFGKYMACTNEECKNTRKILRNGEVAPPKEDPVPLPELPCEKSDAYFVLRDGAAGVFLAANTFPKSRETRAPLVEELYRFRDRLPEKLRYLADAPQQDPEGNKTMVRFSRKTKQQYVSSEKDGKATGWSAFYVDGKWVEGKK”, the “total protein half-life in vivo” value is, setting by setting: under setting [2], 6.56 ± 0.22 h; under setting [12], 6.56 ± 0.69 h; under setting [6], 5.9165 ± 0.0035 h; under setting [7], 6.34 ± 0.074 h; under setting [8], 5.43 ± 0.18 h; under setting [3], 2.57 ± 0.091 h. Also, the “total protein half-life in vivo” value is, setting by setting: under setting [4], 5.9591 ± 0.0017 h; under setting [5], 10.5 ± 0.44 h; under setting [9], 5.88 ± 0.34 h; under setting [10], 12.4 ± 0.35 h; under setting [11], 5.24 ± 0.54 h; under setting [1], 11.5 ± 0.38 h.
Consider “MKRQKRDRLERAHQRGYQAGIAGRSKEMCPYQTLNQRSQWLGGWREAMADRVVMA [P0AFW2]”, for which the “total protein half-life in vivo” value by setting is: under setting [2], 0.535 h; under setting [12], 0.588 h; under setting [6], 0.382 h; under setting [7], 0.441 h; under setting [8], 0.472 ± 0.2 h; under setting [4], 0.0712 h. Moreover, the “total protein half-life in vivo” value by setting is: under setting [5], 0.0514 ± 0.073 h; under setting [9], 0.352 h; under setting [10], 0.686 ± 0.26 h; under setting [1], 1.16 h.
In the case of “MAISSRNTLLAALAFIAFQAQAVNVTVAYQTSAEPAKVAQADNTFAKESGATVDWRKFDSGASIVRALASGDVQIGNLGSSPLAVAASQQVPIEVFLLASKLGNSEALVVKKTISKPEDLIGKRIAVPFISTTHYSLLAALKHWGIKPGQVEIVNLQPPAIIAAWQRGDIDGAYVWAPAVNALEKDGKVLTDSEQVGQWGAPTLDVWVVRKDFAEKHPEVVKAFAKSAIDAQQPYIANPDVWLKQPENISKLARLSGVPEGDVPGLVKGNTYLTPQQQTAELTGPVNKAIIDTAQFLKEQGKVPAVANDYSQYVTSRFVQ”, the “total protein half-life in vivo” value reads like this: under setting [2], 4.13 ± 0.43 h; under setting [12], 4.56 ± 0.22 h; under setting [6], 5.96 ± 0.29 h; under setting [7], 5.56 ± 0.55 h; under setting [3], 2.98 ± 0.11 h; under setting [4], 5.75 ± 1.8 h. Besides, the “total protein half-life in vivo” value reads like this: under setting [5], 13.2 ± 2.6 h; under setting [9], 5.5 ± 0.39 h; under setting [10], 12.4 ± 0.93 h; under setting [11], 6.77 ± 1.1 h; under setting [1], 11 ± 0.14 h.
Turning to “MRSKYIVIEGLEGAGKTTARNVVVETLEQLGIRDMVFTREPGGTQLAEKLRSLVLDIKSVGDEVITDKAEVLMFYAARVQLVETVIKPALANGTWVIGDRHDLSTQAYQGGGRGIDQHMLATLRDAVLGDFRPDLTLYLDVTPEVGLKRARARGELDRIEQESFDFFNRTRARYLELAAQDKSIHTIDATQPLEAVMDAIRTTVTHWVKELDA [P0A720]”, the “total protein half-life in vivo” value is, setting by setting: under setting [2], 4.32 ± 0.51 h; under setting [12], 4 ± 0.41 h; under setting [6], 4.4 ± 0.41 h; under setting [7], 4.52 ± 0.32 h; under setting [8], 4.25 ± 0.13 h; under setting [3], 3.059 ± 0.011 h. Also, the “total protein half-life in vivo” value is, setting by setting: under setting [4], 5.11 ± 0.073 h; under setting [5], 9.9341 ± 0.0012 h; under setting [9], 3.93 ± 0.26 h; under setting [10], 6.63 ± 0.1 h; under setting [11], 5.59 ± 0.5 h; under setting [1], 11.3 ± 0.12 h.
